Patent US20190233493A1 (Sanofi, published 2019)
*1 amine or outer side, *2 acyl side, *3 side chain or, on linkers, in order; H or OH if unused. Primed or numbered codes have the meaning given here. Side-chain parts run from the residue outwards. [ ]: non-standard residue; d: D form. The star is where a group is joined. TTDS = 4-[3-[2-[2-(3-aminopropoxy)ethoxy]ethoxy]propylamino]-4-oxo-butanoyl, O=C(CCC(=O)[*:2])NCCCOCCOCCOCCCN[*:1]; TTDS″ = 4-[3-[2-[2-(3-aminopropoxy)ethoxy]ethoxy]propylamino]-4-oxo-butanoyl; PEG12 = NCCOCCOCCOCCOCCOCCOCCOCCOCCOCCOCCOCCOCCC(=O)O; TtdDga = O=C(COCC(=O)[*:2])NCCCOCCOCCOCCCN[*:1]; γGlu = O=C(O)[C@H](CCC(=O)[*:2])N[*:1]; Pentadecanoyl = CCCCCCCCCCCCCCC(=O)*; Stearoyl = CCCCCCCCCCCCCCCCCC(=O)*; Palmitoyl = CCCCCCCCCCCCCCCC(=O)*; Myristoyl = CCCCCCCCCCCCCC(=O)*; αMeK = C[C@](N)(CCCCN)C(=O)O; Nle = CCCC[C@H](N)C(=O)O; PEG2′ = PEG2 spacer unit; Aib = CC(C)(N)C(=O)O

T1: RXFP1 receptor (UniProt Q9HBX9 1-757, limits assumed)
T1 sequence (looked up): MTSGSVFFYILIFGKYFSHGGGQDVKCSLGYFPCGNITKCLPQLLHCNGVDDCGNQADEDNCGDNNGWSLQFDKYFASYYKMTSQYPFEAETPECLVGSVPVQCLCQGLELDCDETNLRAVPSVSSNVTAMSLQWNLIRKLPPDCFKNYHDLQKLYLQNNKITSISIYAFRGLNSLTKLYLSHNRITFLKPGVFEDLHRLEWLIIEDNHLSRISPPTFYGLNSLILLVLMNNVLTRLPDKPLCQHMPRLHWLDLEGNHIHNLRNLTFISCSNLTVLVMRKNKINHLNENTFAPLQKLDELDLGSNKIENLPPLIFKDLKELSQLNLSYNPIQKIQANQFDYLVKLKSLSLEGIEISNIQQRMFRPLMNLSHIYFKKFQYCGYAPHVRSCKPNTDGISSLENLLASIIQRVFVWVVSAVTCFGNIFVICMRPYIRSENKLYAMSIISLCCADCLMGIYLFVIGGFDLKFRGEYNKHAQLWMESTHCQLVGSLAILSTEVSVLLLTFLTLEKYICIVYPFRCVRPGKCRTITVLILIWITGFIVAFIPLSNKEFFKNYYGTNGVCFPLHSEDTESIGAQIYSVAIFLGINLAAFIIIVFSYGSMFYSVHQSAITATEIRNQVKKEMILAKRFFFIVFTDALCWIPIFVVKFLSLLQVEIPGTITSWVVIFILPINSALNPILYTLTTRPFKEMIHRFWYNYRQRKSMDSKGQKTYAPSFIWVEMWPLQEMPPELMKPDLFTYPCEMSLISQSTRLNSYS

B1: peptide of SEQ ID NO: 187 (peptide)
peptide: Ac-LEGREKVRAK(Ac)I[Aib][Aib]EG[Nle]STFS[αMeK]RAK(Ac)[TTDS][TTDS][TTDS]K([γGlu-γGlu-γGlu-Palmitoyl])-NH2
SMILES: CCCCCCCCCCCCCCCC(=O)N[C@@H](CCC(=O)N[C@@H](CCC(=O)N[C@@H](CCC(=O)NCCCC[C@H](NC(=O)CCC(=O)NCCCOCCOCCOCCCNC(=O)CCC(=O)NCCCOCCOCCOCCCNC(=O)CCC(=O)NCCCOCCOCCOCCCNC(=O)[C@H](CCCCNC(C)=O)NC(=O)[C@H](C)NC(=O)[C@H](CCCNC(=N)N)NC(=O)[C@](C)(CCCCN)NC(=O)[C@H](CO)NC(=O)[C@H](Cc1ccccc1)NC(=O)[C@@H](NC(=O)[C@H](CO)NC(=O)[C@H](CCCC)NC(=O)CNC(=O)[C@H](CCC(=O)O)NC(=O)C(C)(C)NC(=O)C(C)(C)NC(=O)[C@@H](NC(=O)[C@H](CCCCNC(C)=O)NC(=O)[C@H](C)NC(=O)[C@H](CCCNC(=N)N)NC(=O)[C@@H](NC(=O)[C@H](CCCCN)NC(=O)[C@H](CCC(=O)O)NC(=O)[C@H](CCCNC(=N)N)NC(=O)CNC(=O)[C@H](CCC(=O)O)NC(=O)[C@H](CC(C)C)NC(C)=O)C(C)C)[C@@H](C)CC)[C@@H](C)O)C(N)=O)C(=O)O)C(=O)O)C(=O)O
B2: peptide of SEQ ID NO: 190 (peptide)
peptide: Ac-LEGREKVRAK(Ac)I[Aib][Aib]EGQSTFS[αMeK]RAK(Ac)[PEG2′][PEG2′][PEG2′][PEG2′]K([γGlu-γGlu-γGlu-γGlu-Myristoyl])-NH2
B3: peptide of SEQ ID NO: 23 (peptide)
peptide: Ac-LEGREKVRAQI[Aib][Aib]EGMSTWS[Aib]RK[PEG12]K([γGlu-γGlu-γGlu-Palmitoyl])-NH2
SMILES: CCCCCCCCCCCCCCCC(=O)N[C@@H](CCC(=O)N[C@@H](CCC(=O)N[C@@H](CCC(=O)NCCCC[C@H](NC(=O)CCOCCOCCOCCOCCOCCOCCOCCOCCOCCOCCOCCOCCNC(=O)[C@H](CCCCN)NC(=O)[C@H](CCCNC(=N)N)NC(=O)C(C)(C)NC(=O)[C@H](CO)NC(=O)[C@H](Cc1c[nH]c2ccccc12)NC(=O)[C@@H](NC(=O)[C@H](CO)NC(=O)[C@H](CCSC)NC(=O)CNC(=O)[C@H](CCC(=O)O)NC(=O)C(C)(C)NC(=O)C(C)(C)NC(=O)[C@@H](NC(=O)[C@H](CCC(N)=O)NC(=O)[C@H](C)NC(=O)[C@H](CCCNC(=N)N)NC(=O)[C@@H](NC(=O)[C@H](CCCCN)NC(=O)[C@H](CCC(=O)O)NC(=O)[C@H](CCCNC(=N)N)NC(=O)CNC(=O)[C@H](CCC(=O)O)NC(=O)[C@H](CC(C)C)NC(C)=O)C(C)C)[C@@H](C)CC)[C@@H](C)O)C(N)=O)C(=O)O)C(=O)O)C(=O)O
B4: peptide of SEQ ID NO: 20 (peptide)
peptide: Ac-LEGREKVRAK(Ac)I[Aib][Aib]EG[Nle]STWS[Aib]RKK(Ac)[TtdDga][TtdDga][TtdDga]K([γGlu-γGlu-γGlu-Stearoyl])-NH2
SMILES: CCCCCCCCCCCCCCCCCC(=O)N[C@@H](CCC(=O)N[C@@H](CCC(=O)N[C@@H](CCC(=O)NCCCC[C@H](NC(=O)COCC(=O)NCCCOCCOCCOCCCNC(=O)COCC(=O)NCCCOCCOCCOCCCNC(=O)COCC(=O)NCCCOCCOCCOCCCNC(=O)[C@H](CCCCNC(C)=O)NC(=O)[C@H](CCCCN)NC(=O)[C@H](CCCNC(=N)N)NC(=O)C(C)(C)NC(=O)[C@H](CO)NC(=O)[C@H](Cc1c[nH]c2ccccc12)NC(=O)[C@@H](NC(=O)[C@H](CO)NC(=O)[C@H](CCCC)NC(=O)CNC(=O)[C@H](CCC(=O)O)NC(=O)C(C)(C)NC(=O)C(C)(C)NC(=O)[C@@H](NC(=O)[C@H](CCCCNC(C)=O)NC(=O)[C@H](C)NC(=O)[C@H](CCCNC(=N)N)NC(=O)[C@@H](NC(=O)[C@H](CCCCN)NC(=O)[C@H](CCC(=O)O)NC(=O)[C@H](CCCNC(=N)N)NC(=O)CNC(=O)[C@H](CCC(=O)O)NC(=O)[C@H](CC(C)C)NC(C)=O)C(C)C)[C@@H](C)CC)[C@@H](C)O)C(N)=O)C(=O)O)C(=O)O)C(=O)O
B5: peptide of SEQ ID NO: 188 (peptide)
peptide: Ac-LEGREKVRAK(Ac)I[Aib][Aib]EG[Nle]STFS[αMeK]RAK(Ac)[TTDS][TTDS][TTDS]K([γGlu-γGlu-γGlu-Pentadecanoyl])-NH2
SMILES: CCCCCCCCCCCCCCC(=O)N[C@@H](CCC(=O)N[C@@H](CCC(=O)N[C@@H](CCC(=O)NCCCC[C@H](NC(=O)CCC(=O)NCCCOCCOCCOCCCNC(=O)CCC(=O)NCCCOCCOCCOCCCNC(=O)CCC(=O)NCCCOCCOCCOCCCNC(=O)[C@H](CCCCNC(C)=O)NC(=O)[C@H](C)NC(=O)[C@H](CCCNC(=N)N)NC(=O)[C@](C)(CCCCN)NC(=O)[C@H](CO)NC(=O)[C@H](Cc1ccccc1)NC(=O)[C@@H](NC(=O)[C@H](CO)NC(=O)[C@H](CCCC)NC(=O)CNC(=O)[C@H](CCC(=O)O)NC(=O)C(C)(C)NC(=O)C(C)(C)NC(=O)[C@@H](NC(=O)[C@H](CCCCNC(C)=O)NC(=O)[C@H](C)NC(=O)[C@H](CCCNC(=N)N)NC(=O)[C@@H](NC(=O)[C@H](CCCCN)NC(=O)[C@H](CCC(=O)O)NC(=O)[C@H](CCCNC(=N)N)NC(=O)CNC(=O)[C@H](CCC(=O)O)NC(=O)[C@H](CC(C)C)NC(C)=O)C(C)C)[C@@H](C)CC)[C@@H](C)O)C(N)=O)C(=O)O)C(=O)O)C(=O)O
B6: peptide of SEQ ID NO: 21 (peptide)
peptide: Ac-LEGREKVRAQI[Aib][Aib]EG[Nle]STWS[Aib]RKK(Ac)[PEG12]K(Stearoyl)-NH2
SMILES: CCCCCCCCCCCCCCCCCC(=O)NCCCC[C@H](NC(=O)CCOCCOCCOCCOCCOCCOCCOCCOCCOCCOCCOCCOCCNC(=O)[C@H](CCCCNC(C)=O)NC(=O)[C@H](CCCCN)NC(=O)[C@H](CCCNC(=N)N)NC(=O)C(C)(C)NC(=O)[C@H](CO)NC(=O)[C@H](Cc1c[nH]c2ccccc12)NC(=O)[C@@H](NC(=O)[C@H](CO)NC(=O)[C@H](CCCC)NC(=O)CNC(=O)[C@H](CCC(=O)O)NC(=O)C(C)(C)NC(=O)C(C)(C)NC(=O)[C@@H](NC(=O)[C@H](CCC(N)=O)NC(=O)[C@H](C)NC(=O)[C@H](CCCNC(=N)N)NC(=O)[C@@H](NC(=O)[C@H](CCCCN)NC(=O)[C@H](CCC(=O)O)NC(=O)[C@H](CCCNC(=N)N)NC(=O)CNC(=O)[C@H](CCC(=O)O)NC(=O)[C@H](CC(C)C)NC(C)=O)C(C)C)[C@@H](C)CC)[C@@H](C)O)C(N)=O
B7: peptide of SEQ ID NO: 22 (peptide)
peptide: Ac-LEGREKVRAQI[Aib][Aib]EG[Nle]STWS[Aib]RKK[PEG12]K([γGlu-Stearoyl])-NH2
SMILES: CCCCCCCCCCCCCCCCCC(=O)N[C@@H](CCC(=O)NCCCC[C@H](NC(=O)CCOCCOCCOCCOCCOCCOCCOCCOCCOCCOCCOCCOCCNC(=O)[C@H](CCCCN)NC(=O)[C@H](CCCCN)NC(=O)[C@H](CCCNC(=N)N)NC(=O)C(C)(C)NC(=O)[C@H](CO)NC(=O)[C@H](Cc1c[nH]c2ccccc12)NC(=O)[C@@H](NC(=O)[C@H](CO)NC(=O)[C@H](CCCC)NC(=O)CNC(=O)[C@H](CCC(=O)O)NC(=O)C(C)(C)NC(=O)C(C)(C)NC(=O)[C@@H](NC(=O)[C@H](CCC(N)=O)NC(=O)[C@H](C)NC(=O)[C@H](CCCNC(=N)N)NC(=O)[C@@H](NC(=O)[C@H](CCCCN)NC(=O)[C@H](CCC(=O)O)NC(=O)[C@H](CCCNC(=N)N)NC(=O)CNC(=O)[C@H](CCC(=O)O)NC(=O)[C@H](CC(C)C)NC(C)=O)C(C)C)[C@@H](C)CC)[C@@H](C)O)C(N)=O)C(=O)O
B8: peptide of SEQ ID NO: 192 (peptide)
peptide: Ac-LEGREKVRAK(Ac)I[Aib][Aib]EG[Nle]STFS[αMeK]RAK(Ac)[PEG2′][PEG2′][PEG2′][PEG2′]K([γGlu-γGlu-γGlu-Palmitoyl])-NH2
B9: peptide of SEQ ID NO: 189 (peptide)
peptide: Ac-LEGREKVRAK(Ac)I[Aib][Aib]EGQSTFS[αMeK]RAK(Ac)K([TTDS″-TTDS″-TTDS″-γGlu-γGlu-γGlu-Pentadecanoyl])-NH2
B10: peptide of SEQ ID NO: 191 (peptide)
peptide: Ac-LEGREKVRAK(Ac)I[Aib][Aib]EGQSTFS[αMeK]RAK(Ac)K([PEG2′-PEG2′-PEG2′-PEG2′-γGlu-γGlu-γGlu-γGlu-Palmitoyl])-NH2

Target: T1, RXFP1 receptor
Experiment: cell-based or functional assay

Binder | EC50 (nM), OVCAR 5 cells (cAMP) | EMax, OVCAR 5 cells (cAMP)
B1 | 0.33 nM | 100%
B2 | 1.29 nM | 93%
B3 | 3.62 nM | 89%
B4 | 0.45 nM | 88%
B5 | 0.75 nM | 100%
B6 | 38.6 nM | 88%
B7 | 21.4 nM | 104%
B8 | 0.62 nM | 91%
B9 | 0.42 nM | 100%
B10 | 0.17 nM | 93%
